Experimental data from paper PMC5814829.
Read-outs that look alike come from different tables or passages of the source.

T1: ScPif1p R323A (Saccharomyces cerevisiae, UniProt P07271 237-780, R323A)
T1 sequence: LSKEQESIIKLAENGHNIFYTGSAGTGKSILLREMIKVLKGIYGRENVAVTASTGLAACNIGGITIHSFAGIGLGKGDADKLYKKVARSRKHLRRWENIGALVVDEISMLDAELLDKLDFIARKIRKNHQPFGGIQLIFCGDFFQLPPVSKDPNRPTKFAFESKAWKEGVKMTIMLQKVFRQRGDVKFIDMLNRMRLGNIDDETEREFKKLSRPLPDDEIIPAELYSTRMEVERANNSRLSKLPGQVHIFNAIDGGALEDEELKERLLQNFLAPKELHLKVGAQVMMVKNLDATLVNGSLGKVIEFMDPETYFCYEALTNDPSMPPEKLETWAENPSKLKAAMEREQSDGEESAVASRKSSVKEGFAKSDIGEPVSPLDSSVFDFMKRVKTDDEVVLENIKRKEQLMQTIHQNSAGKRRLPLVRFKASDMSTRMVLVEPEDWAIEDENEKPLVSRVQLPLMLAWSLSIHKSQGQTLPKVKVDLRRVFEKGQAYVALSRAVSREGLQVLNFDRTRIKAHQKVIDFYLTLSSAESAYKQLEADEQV

T2: ScPif1p (237-780) (Saccharomyces cerevisiae, UniProt P07271 237-780)
T2 sequence: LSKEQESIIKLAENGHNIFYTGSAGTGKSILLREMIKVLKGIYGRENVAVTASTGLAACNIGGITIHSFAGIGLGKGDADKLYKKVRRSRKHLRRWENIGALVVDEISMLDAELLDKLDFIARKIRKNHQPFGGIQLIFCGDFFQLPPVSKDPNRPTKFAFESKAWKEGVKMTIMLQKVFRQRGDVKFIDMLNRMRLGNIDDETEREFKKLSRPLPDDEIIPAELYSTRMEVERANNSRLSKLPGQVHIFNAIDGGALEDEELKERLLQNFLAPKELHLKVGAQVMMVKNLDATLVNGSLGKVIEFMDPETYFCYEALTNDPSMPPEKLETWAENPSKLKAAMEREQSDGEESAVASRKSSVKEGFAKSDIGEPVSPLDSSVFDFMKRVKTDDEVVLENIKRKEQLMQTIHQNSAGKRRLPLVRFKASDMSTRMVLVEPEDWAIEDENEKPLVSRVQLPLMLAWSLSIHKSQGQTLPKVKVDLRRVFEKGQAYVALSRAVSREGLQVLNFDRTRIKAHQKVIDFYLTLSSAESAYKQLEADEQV

T3: ScPif1p R324N (Saccharomyces cerevisiae, UniProt P07271 237-780, R324N)
T3 sequence: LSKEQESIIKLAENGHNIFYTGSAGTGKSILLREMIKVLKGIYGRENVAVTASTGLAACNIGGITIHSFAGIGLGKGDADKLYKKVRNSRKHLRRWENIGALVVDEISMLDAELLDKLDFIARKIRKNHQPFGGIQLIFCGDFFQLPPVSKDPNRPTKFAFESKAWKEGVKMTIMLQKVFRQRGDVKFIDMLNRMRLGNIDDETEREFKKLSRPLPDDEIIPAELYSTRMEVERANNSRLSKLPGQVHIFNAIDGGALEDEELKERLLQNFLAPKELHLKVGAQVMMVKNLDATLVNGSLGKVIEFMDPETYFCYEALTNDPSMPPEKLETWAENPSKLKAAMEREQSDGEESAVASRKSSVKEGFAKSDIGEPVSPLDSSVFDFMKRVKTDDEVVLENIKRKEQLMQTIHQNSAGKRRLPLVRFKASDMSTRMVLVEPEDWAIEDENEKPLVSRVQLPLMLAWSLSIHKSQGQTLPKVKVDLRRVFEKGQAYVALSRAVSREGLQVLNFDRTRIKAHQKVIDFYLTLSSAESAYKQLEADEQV

T4: ScPif1p K363A (Saccharomyces cerevisiae, UniProt P07271 237-780, K363A)
T4 sequence: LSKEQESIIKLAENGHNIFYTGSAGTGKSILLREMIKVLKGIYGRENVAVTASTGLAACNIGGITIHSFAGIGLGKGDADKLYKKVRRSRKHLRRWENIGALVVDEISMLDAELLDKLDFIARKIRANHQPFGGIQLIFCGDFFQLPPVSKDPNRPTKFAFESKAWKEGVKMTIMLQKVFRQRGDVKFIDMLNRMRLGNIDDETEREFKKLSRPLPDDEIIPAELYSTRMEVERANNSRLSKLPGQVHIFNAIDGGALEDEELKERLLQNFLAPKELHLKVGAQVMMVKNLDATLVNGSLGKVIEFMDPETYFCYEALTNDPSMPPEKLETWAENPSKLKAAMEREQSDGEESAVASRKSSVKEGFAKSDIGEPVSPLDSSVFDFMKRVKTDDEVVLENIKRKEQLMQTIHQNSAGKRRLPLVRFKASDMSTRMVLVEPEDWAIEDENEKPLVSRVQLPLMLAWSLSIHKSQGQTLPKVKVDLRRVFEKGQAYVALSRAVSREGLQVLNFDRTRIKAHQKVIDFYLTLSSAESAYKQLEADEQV


What was measured:
Assay in all cases: fluorescence anisotropy
ScPif1p R323A = target: T1, ScPif1p R323A
ScPif1p (237-780) [1] = target: T2, ScPif1p (237-780)
ScPif1p R324N = target: T3, ScPif1p R324N
ScPif1p K363A = target: T4, ScPif1p K363A
ScPif1p (237-780) [2] = target: T2, ScPif1p (237-780); remark: listed apart in the source
ScPif1p (237-780) [3] = target: T2, ScPif1p (237-780); remark: listed apart in the source

Binder	Kd (ScPif1p R323A) [µM]	Kd (ScPif1p (237-780) [1]) [µM]	Kd (ScPif1p R324N) [µM]	Kd (ScPif1p K363A) [µM]	Kd (ScPif1p (237-780) [2]) [µM]	Kd (ScPif1p (237-780) [3]) [µM]
dsDNA16bp (dsDNA) DNA 1: CTCTGCTCGACGGATT DNA 2: AATCCGTCGAGCAGAG	0.1 ± 0.0051	0.0813 ± 0.0103	0.0579 ± 0.0011	0.0723 ± 0.0083	–	–
GTGTGTGTGGTG (ssDNA) [GR12]	0.0099 ± 0.0004	0.0112 ± 0.0021	0.0114 ± 0.0043	0.0144 ± 0.0013	0.0061	0.0078
AGGGTGGGTGGGTGGGT (structured_DNA) [F-G417]	0.0251 ± 0.0014	–	0.0879 ± 0.0071	0.0439 ± 0.0022	–	–
